Laboratory results as given in doi:10.1101/2022.04.26.489556.

Target: T1, Rv1019 (TetR family regulator) (UniProt P96381 1-197)
T1 sequence: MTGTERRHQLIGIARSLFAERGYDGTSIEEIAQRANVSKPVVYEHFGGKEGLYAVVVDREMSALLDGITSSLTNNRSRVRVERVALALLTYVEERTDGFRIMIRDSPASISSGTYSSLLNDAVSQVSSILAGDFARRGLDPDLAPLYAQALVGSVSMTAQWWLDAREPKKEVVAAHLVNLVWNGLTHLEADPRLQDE
Experiment: EMSA

B1: MSMEG_1885 palindrome (MS_1886 PAL oligos) (dsDNA)
DNA 1: TAAGTTACGGTACCGTAGGTTG
DNA 2: CAACCTACGGTACCGTAACTTA
binding result: binds
